According to the Human Domainome abundance scans (Beltran et al. 2025):
± gives the uncertainty stated by the source.

B1: Glucocorticoid receptor, residues 419 to 494; numbered along this chain, P04150 (parent)
chain: KLCLVCSDEASGCHYGVLTCGSCKVFFKRAVEGQHNYLCAGRNDCIIDKIRRKNCPACRYRKCLQAGMNLEARKTK

Variants of: B1
Assay: abundance fitness (aPCA) (normalised: wild type 0, dead -1); higher = more abundant; growth selection in yeast, the domain comes from the species named
Conditions: Homo sapiens

Which abundance fitness does the source give for SLCLVCSDEASGCHYGVLTCGSCKVFFKRAVEGQHNYLCAGRNDCIIDKIRRKNCPACRYRKCLQAGMNLEARKTK [K1S] here?
Its abundance fitness is -0.062 ± 0.063.

For LLCLVCSDEASGCHYGVLTCGSCKVFFKRAVEGQHNYLCAGRNDCIIDKIRRKNCPACRYRKCLQAGMNLEARKTK [K1L], which abundance fitness is on record?
Its abundance fitness is -0.236 ± 0.058.

Which abundance fitness does the source give for HLCLVCSDEASGCHYGVLTCGSCKVFFKRAVEGQHNYLCAGRNDCIIDKIRRKNCPACRYRKCLQAGMNLEARKTK [K1H] here?
Its abundance fitness is -0.304 ± 0.12.

Which abundance fitness does the source give for GLCLVCSDEASGCHYGVLTCGSCKVFFKRAVEGQHNYLCAGRNDCIIDKIRRKNCPACRYRKCLQAGMNLEARKTK [K1G] here?
Its abundance fitness is -0.123 ± 0.047.

Which abundance fitness does the source give for KLLLVCSDEASGCHYGVLTCGSCKVFFKRAVEGQHNYLCAGRNDCIIDKIRRKNCPACRYRKCLQAGMNLEARKTK [C3L] here?
The abundance fitness was -0.918 ± 0.11.

Which abundance fitness does the source give for KLMLVCSDEASGCHYGVLTCGSCKVFFKRAVEGQHNYLCAGRNDCIIDKIRRKNCPACRYRKCLQAGMNLEARKTK [C3M] here?
Its abundance fitness is -0.763 ± 0.15.

Which abundance fitness does the source give for KLKLVCSDEASGCHYGVLTCGSCKVFFKRAVEGQHNYLCAGRNDCIIDKIRRKNCPACRYRKCLQAGMNLEARKTK [C3K] here?
Its abundance fitness is -0.823 ± 0.18.

Which abundance fitness does the source give for KLVLVCSDEASGCHYGVLTCGSCKVFFKRAVEGQHNYLCAGRNDCIIDKIRRKNCPACRYRKCLQAGMNLEARKTK [C3V] here?
Its abundance fitness is -1.13 ± 0.17.

For KLDLVCSDEASGCHYGVLTCGSCKVFFKRAVEGQHNYLCAGRNDCIIDKIRRKNCPACRYRKCLQAGMNLEARKTK [C3D], which abundance fitness is on record?
Its abundance fitness is -0.653 ± 0.33.

Which abundance fitness does the source give for KLQLVCSDEASGCHYGVLTCGSCKVFFKRAVEGQHNYLCAGRNDCIIDKIRRKNCPACRYRKCLQAGMNLEARKTK [C3Q] here?
The abundance fitness was -0.686 ± 0.16.

With KLNLVCSDEASGCHYGVLTCGSCKVFFKRAVEGQHNYLCAGRNDCIIDKIRRKNCPACRYRKCLQAGMNLEARKTK [C3N] as the variant, how does the abundance fitness read?
Its abundance fitness is -0.67 ± 0.27.

With KLELVCSDEASGCHYGVLTCGSCKVFFKRAVEGQHNYLCAGRNDCIIDKIRRKNCPACRYRKCLQAGMNLEARKTK [C3E] as the variant, how does the abundance fitness read?
The abundance fitness was -0.787 ± 0.12.

Which abundance fitness does the source give for KLWLVCSDEASGCHYGVLTCGSCKVFFKRAVEGQHNYLCAGRNDCIIDKIRRKNCPACRYRKCLQAGMNLEARKTK [C3W] here?
The abundance fitness was -0.879 ± 0.14.

Which abundance fitness does the source give for KLFLVCSDEASGCHYGVLTCGSCKVFFKRAVEGQHNYLCAGRNDCIIDKIRRKNCPACRYRKCLQAGMNLEARKTK [C3F] here?
The abundance fitness was -0.719 ± 0.29.

Which abundance fitness does the source give for KLSLVCSDEASGCHYGVLTCGSCKVFFKRAVEGQHNYLCAGRNDCIIDKIRRKNCPACRYRKCLQAGMNLEARKTK [C3S] here?
The abundance fitness was -0.728 ± 0.089.

For KLRLVCSDEASGCHYGVLTCGSCKVFFKRAVEGQHNYLCAGRNDCIIDKIRRKNCPACRYRKCLQAGMNLEARKTK [C3R], which abundance fitness is on record?
The abundance fitness was -0.771 ± 0.081.

For KLPLVCSDEASGCHYGVLTCGSCKVFFKRAVEGQHNYLCAGRNDCIIDKIRRKNCPACRYRKCLQAGMNLEARKTK [C3P], which abundance fitness is on record?
The abundance fitness was -0.84 ± 0.26.

Which abundance fitness does the source give for KLTLVCSDEASGCHYGVLTCGSCKVFFKRAVEGQHNYLCAGRNDCIIDKIRRKNCPACRYRKCLQAGMNLEARKTK [C3T] here?
The abundance fitness was -0.818 ± 0.22.

With KLYLVCSDEASGCHYGVLTCGSCKVFFKRAVEGQHNYLCAGRNDCIIDKIRRKNCPACRYRKCLQAGMNLEARKTK [C3Y] as the variant, how does the abundance fitness read?
The abundance fitness was -0.764 ± 0.24.

For KLILVCSDEASGCHYGVLTCGSCKVFFKRAVEGQHNYLCAGRNDCIIDKIRRKNCPACRYRKCLQAGMNLEARKTK [C3I], which abundance fitness is on record?
Its abundance fitness is -0.684 ± 0.2.

With KLHLVCSDEASGCHYGVLTCGSCKVFFKRAVEGQHNYLCAGRNDCIIDKIRRKNCPACRYRKCLQAGMNLEARKTK [C3H] as the variant, how does the abundance fitness read?
The abundance fitness was -0.737 ± 0.44.

For KLCNVCSDEASGCHYGVLTCGSCKVFFKRAVEGQHNYLCAGRNDCIIDKIRRKNCPACRYRKCLQAGMNLEARKTK [L4N], which abundance fitness is on record?
Its abundance fitness is -0.01 ± 0.047.

For KLCGVCSDEASGCHYGVLTCGSCKVFFKRAVEGQHNYLCAGRNDCIIDKIRRKNCPACRYRKCLQAGMNLEARKTK [L4G], which abundance fitness is on record?
Its abundance fitness is -0.03 ± 0.032.

With KLCPVCSDEASGCHYGVLTCGSCKVFFKRAVEGQHNYLCAGRNDCIIDKIRRKNCPACRYRKCLQAGMNLEARKTK [L4P] as the variant, how does the abundance fitness read?
Its abundance fitness is -0.098 ± 0.046.

Which abundance fitness does the source give for KLCWVCSDEASGCHYGVLTCGSCKVFFKRAVEGQHNYLCAGRNDCIIDKIRRKNCPACRYRKCLQAGMNLEARKTK [L4W] here?
The abundance fitness was -0.068 ± 0.041.

For KLCTVCSDEASGCHYGVLTCGSCKVFFKRAVEGQHNYLCAGRNDCIIDKIRRKNCPACRYRKCLQAGMNLEARKTK [L4T], which abundance fitness is on record?
Its abundance fitness is 0.004 ± 0.04.

For KLCYVCSDEASGCHYGVLTCGSCKVFFKRAVEGQHNYLCAGRNDCIIDKIRRKNCPACRYRKCLQAGMNLEARKTK [L4Y], which abundance fitness is on record?
The abundance fitness was -0.029 ± 0.062.

For KLCQVCSDEASGCHYGVLTCGSCKVFFKRAVEGQHNYLCAGRNDCIIDKIRRKNCPACRYRKCLQAGMNLEARKTK [L4Q], which abundance fitness is on record?
The abundance fitness was 0.047 ± 0.045.

Which abundance fitness does the source give for KLCAVCSDEASGCHYGVLTCGSCKVFFKRAVEGQHNYLCAGRNDCIIDKIRRKNCPACRYRKCLQAGMNLEARKTK [L4A] here?
The abundance fitness was -0.096 ± 0.043.

For KLCHVCSDEASGCHYGVLTCGSCKVFFKRAVEGQHNYLCAGRNDCIIDKIRRKNCPACRYRKCLQAGMNLEARKTK [L4H], which abundance fitness is on record?
Its abundance fitness is -0.141 ± 0.053.

For KLCFVCSDEASGCHYGVLTCGSCKVFFKRAVEGQHNYLCAGRNDCIIDKIRRKNCPACRYRKCLQAGMNLEARKTK [L4F], which abundance fitness is on record?
The abundance fitness was -0.024 ± 0.065.

With KLCDVCSDEASGCHYGVLTCGSCKVFFKRAVEGQHNYLCAGRNDCIIDKIRRKNCPACRYRKCLQAGMNLEARKTK [L4D] as the variant, how does the abundance fitness read?
Its abundance fitness is 0.035 ± 0.07.

For KLCRVCSDEASGCHYGVLTCGSCKVFFKRAVEGQHNYLCAGRNDCIIDKIRRKNCPACRYRKCLQAGMNLEARKTK [L4R], which abundance fitness is on record?
Its abundance fitness is 0.017 ± 0.029.

For KLCKVCSDEASGCHYGVLTCGSCKVFFKRAVEGQHNYLCAGRNDCIIDKIRRKNCPACRYRKCLQAGMNLEARKTK [L4K], which abundance fitness is on record?
The abundance fitness was 0.109 ± 0.044.

With KLCEVCSDEASGCHYGVLTCGSCKVFFKRAVEGQHNYLCAGRNDCIIDKIRRKNCPACRYRKCLQAGMNLEARKTK [L4E] as the variant, how does the abundance fitness read?
Its abundance fitness is 0.024 ± 0.046.

Which abundance fitness does the source give for KLCSVCSDEASGCHYGVLTCGSCKVFFKRAVEGQHNYLCAGRNDCIIDKIRRKNCPACRYRKCLQAGMNLEARKTK [L4S] here?
The abundance fitness was -0.026 ± 0.039.

For KLCVVCSDEASGCHYGVLTCGSCKVFFKRAVEGQHNYLCAGRNDCIIDKIRRKNCPACRYRKCLQAGMNLEARKTK [L4V], which abundance fitness is on record?
Its abundance fitness is -0.052 ± 0.035.

With KLCMVCSDEASGCHYGVLTCGSCKVFFKRAVEGQHNYLCAGRNDCIIDKIRRKNCPACRYRKCLQAGMNLEARKTK [L4M] as the variant, how does the abundance fitness read?
The abundance fitness was 0.001 ± 0.042.

For KLCCVCSDEASGCHYGVLTCGSCKVFFKRAVEGQHNYLCAGRNDCIIDKIRRKNCPACRYRKCLQAGMNLEARKTK [L4C], which abundance fitness is on record?
The abundance fitness was 0.016 ± 0.049.
